# In US20180230233A1 (Genentech, published 2018):
# Positions count from the first letter of the chain named. Numbers in names are those of the source.
# B1: hu31A.v11 W100F (antibody, name in Kabat numbering, V domains shown)
# VH: EVQLVESGGGLVQPGGSLRLSCAASGFTFSDYGMVWVRQAPGKGLEWVAFISSGSSTVYYADTMKGRFTISRDNSKNTLYLQMNSLRAEDTAVYYCTRRNYDDFYFDVWGQGTLVTVSS
# VL: DIQMTQSPSSLSASVGDRVTITCSASSSVTYMYWYQQKPGKSPKPWIYRTSDLASGVPSRFSGSGSGTDFTLTISSLQPEDFATYYCQHYHSYPLTFGQGTKVEIK
# notes: also called W100F variant
# B2: hu31A.v11 W100R (antibody, name in Kabat numbering, V domains shown)
# VH: B1 VH with F104R
# VL: B1 VL
# notes: also called W100R variant
# B3: hu31A.v11 W100L (antibody, name in Kabat numbering, V domains shown)
# VH: B1 VH with F104L
# VL: B1 VL
# notes: also called W100L variant
# B4: hu31A.v11 W100V (antibody, name in Kabat numbering, V domains shown)
# VH: B1 VH with F104V
# VL: B1 VL
# notes: Position 100 is Kabat numbering; also called W100V variant
# B5: hu31A.v11 W100Y (antibody, name in Kabat numbering, V domains shown)
# VH: B1 VH with F104Y
# VL: B1 VL
# notes: Position 100 is Kabat numbering; also called W100Y variant
# B6: huE104.v2 IgG4 (S228P) (antibody)
# heavy: not shown
# light: DIQMTQSPSSLSASVGDRVTITCQSIKSVYNNRLGWYQQKPGKAPKLLIYETSILTSGVPSRFSGSGSGTDFTLTISSLQPEDFATYYCAGGFDRSGDTTFGQGTKVEIKRTVAAPSVFIFPPSDEQLKSGTASVVCLLNNFYPREAKVQWKVDNALQSGNSQESVTEQDSKDSTYSLSSTLTLSKADYEKHKVYACEVTHQGLSSPVTKSFNRGEC
# notes: also called huE104.v2 Control
# B7: rabbit anti-tryptase monoclonal antibody E104 (antibody, V domains shown)
# VH: QSLEESGGGLFKPTDTLTLTCTVSRFSLIGYAITWVRQSPENGLEWIGGISSAATTFYSSWAKSRSTITRNTNENTVTLKMTSLTAADTATYFCARDPRGYGAALDRLDLWGQGTLVTVSS
# VL: AAVLTQTPASVSAAVGGTVSISCQSIKSVYNNRLGWYQQKPGQPPKLLIYETSILTSGVPSRFKGSGSETQFTLTISDVQCDDAATYFCAGGFDRSGDTTFGGGTEVVVK
# notes: Rabbit hybridoma antibody with rabbit kappa light chain; also called rab.E104; clone E104
# B8: huE104.v11 IgG1 (antibody, V domains shown)
# VH: EVQLVESGPGLVKPSETLSLTCTVSRFSLIGYAITWIRQPPGKGLEWIGGISSAATTFYSSWAKSRVTISVDTSKNQVSLKLSSVTAADTAVYYCARDPRGYGAALDRLDLWGQGTLVTVSS
# VL: DIQMTQSPSSLSASVGDRVTITCQSIKSVYNNRLGWYQQKPGKAPKLLIYETSILTSGVPSRFSGSGSGTDFTLTISSLQPEDFATYYCAGGFDRSGDTTFGQGTKVEIK
# notes: also called v11 (of huE104)
# B9: huE104.v4 IgG1 (antibody, V domains shown)
# VH: EVQLVESGGGLVQPGGSLRLSCAVSRFSLIGYAITWVRQAPGKGLEWIGGISSAATTFYSSWAKSRSTISRDTSKNTVYLQMNSLRAEDTAVYFCARDPRGYGAALDRLDLWGQGTLVTVSS
# VL: B8 VL
# B10: huE104.v10 IgG1 (chimeric light chain) (antibody, V domains shown)
# VH: B8 VH with V71R
# VL: B7 VL with C81A
# B11: huE104.v8 IgG1 (antibody, V domains shown)
# VH: B9 VH
# VL: B8 VL with I2A, M4L, A44P, G69E, Y88F
# B12: huE104.v12 IgG1 (antibody, V domains shown)
# VH: B8 VH with V71R, V78F
# VL: B8 VL
# notes: also called v12 (of huE104)
# Columns and labels:
# [1] = target: T1, recombinant His-tagged human tryptase beta 1 monomer (human, UniProt Q15661 31-275); test: SPR, tryptase beta 1 monomer
# T1 construct: also called His6-tagged tryptase monomer; human tryptase b1 monomer
# T1 sequence (Q15661 other isoform, or with tags, fused parts or gaps): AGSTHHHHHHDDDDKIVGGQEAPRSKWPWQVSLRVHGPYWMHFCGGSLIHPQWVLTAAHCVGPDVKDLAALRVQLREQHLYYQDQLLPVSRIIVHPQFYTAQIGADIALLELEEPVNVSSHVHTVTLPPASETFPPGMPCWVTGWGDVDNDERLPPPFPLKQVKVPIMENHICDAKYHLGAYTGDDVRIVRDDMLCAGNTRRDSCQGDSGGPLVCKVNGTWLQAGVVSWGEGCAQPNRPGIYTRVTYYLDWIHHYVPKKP
# [2] = target: T2, recombinant human tryptase beta 1 tetramer (wild type, active) (human, UniProt Q15661 31-275); test: cell-based or functional assay
# T2 sequence (Q15661 31-275): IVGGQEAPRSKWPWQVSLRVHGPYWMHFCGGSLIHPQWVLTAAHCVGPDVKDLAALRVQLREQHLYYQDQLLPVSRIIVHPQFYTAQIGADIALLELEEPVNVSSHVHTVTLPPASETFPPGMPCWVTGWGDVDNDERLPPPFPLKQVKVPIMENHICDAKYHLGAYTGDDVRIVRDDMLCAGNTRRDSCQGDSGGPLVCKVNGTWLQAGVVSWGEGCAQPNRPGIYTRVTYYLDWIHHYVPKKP
# [3] = target: T1, recombinant His-tagged human tryptase …; test: SPR, tryptase beta 1 monomer; remark: listed apart in the source
# Method: (§1) The assay can use a BIAcore® T200 or an equivalent device. Briefly, BIAcore® Series S CM5 sensor chips (or equivalent sensor chips) are immobilized with monoclonal mouse anti-human IgG (Fc) antibody and anti-tryptase antibodies are subsequently captured on the flow cell. Serial 3-fold dilutions of the human tryptase beta 1 monomer are injected at a flow rate of 30 μl/min. Each sample is analyzed with 3 min association and 10 min dissociation. The assay is performed at 25° C. After each injection, the chip is regenerated using 3 M MgCl₂. Binding response is corrected by subtracting the response units (RU) from a flow cell capturing an irrelevant IgG at similar density. A 1:1 Languir model of simultaneous fitting of kₒₙ and koff is used for kinetics analysis.
# (§2) In this experiment, all the humanized variants were expressed as IgG by transient transfection of 293 cells. IgG was purified with protein G affinity chromatography. The affinity of each variant for recombinant His-tagged human tryptase beta 1 monomer (SEQ ID NO: 128) was determined by SPR analysis using a BIAcore® T200. BIAcore® Series S CM5 sensor chips were immobilized with monoclonal mouse anti-human IgG (Fc) antibody (Human antibody capture kit from GE Healthcare) and anti-tryptase variants were subsequently captured on each flow cell. Serial 3-fold dilutions of the human tryptase beta 1 monomer were injected at a flow rate of 30 μl/min. Each sample was analyzed with 3 min association and 10 min dissociation. After each injection, the chip was regenerated using 3 M MgCl₂. Binding response was corrected by subtracting the response units (RU) from a flow cell capturing an irrelevant IgG at similar density. A 1:1 Languir model of simultaneous fitting of kₒₙ and koff was used for kinetics analysis.
# human tryptase beta 3 [4] = target: T3, human tryptase beta 3 (human, UniProt P20231 31-275); test: cell-based or functional assay
# T3 sequence (P20231 other isoform, or with tags, fused parts or gaps limits assumed): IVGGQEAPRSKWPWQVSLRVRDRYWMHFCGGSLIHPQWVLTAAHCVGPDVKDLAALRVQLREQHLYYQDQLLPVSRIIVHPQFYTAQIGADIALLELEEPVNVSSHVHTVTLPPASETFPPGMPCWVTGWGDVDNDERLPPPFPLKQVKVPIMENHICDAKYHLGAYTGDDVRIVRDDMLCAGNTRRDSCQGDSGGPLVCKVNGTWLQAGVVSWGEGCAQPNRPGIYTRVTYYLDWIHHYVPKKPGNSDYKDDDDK
# human tryptase beta 3 [5] = target: T3, human tryptase beta 3; test: SPR, protocol as for tryptase beta 1
# Method: as §2
# [6] = target: T2, recombinant human tryptase beta 1 …; test: ELISA on biotinylated human tryptase beta 1 captured on NeutrAvidin, with heparin to keep the tetramer
# [7] = target: T1, recombinant His-tagged human tryptase …; test: SPR (BIAcore T200); IgG1 captured by anti-human Fc, His-tagged monomer injected
# Method: as §1, §2
Binder,KD as fold increase compared to hu31A.v11 wild type [3] [fold],Kd [7] [nM],other results
B1,80,–,fold faster off-rate (Koff) compared to wild-type hu31A.v11 [1]: ~100 fold; IC50 as fold increase compared to hu31A.v11 wild type [2]: 2.5 fold
B2,54,–,–
B3,2410,–,–
B4,821,–,–
B5,234,–,IC50 as fold increase compared to hu31A.v11 wild type [2]: 3.46 fold
B6,–,–,"IC50 (nM), tryptase enzymatic assay (human tryptase beta 3 [4]): 2.8 nM; Kd (human tryptase beta 3 [5]): 0.13 nM"
B7,–,–,binding result [6]: binds
B8,–,0.32,–
B9,–,0.44,–
B10,–,0.26,–
B11,–,0.24,–
B12,–,0.12,–
